Source: US20260176374A1 (published 2026)

What was measured:
Assay in all cases: BLI
19113 = target: 19113
19429 = target: 19429
14949 = target: 14949

Kd 19113: 2 nM
Kd 19429: 0.8 nM
Kd 14949: 2 nM
B1: hEPOR (receptor)
chain: APPPNLPDPKFESKAALLAARGPEELLCFTERLEDLVCFWEEAASAGVGPGNYSFSYQLEDEPWKLCRLHQAPTARGAVRFWCSLPTADTSSFVPLELRVTAASGAPRYHRVIHINEVVLLDAPVGLVARLADESGHVVLRWLPPPETPMTSHIRYEVDVSAGNGAGSVQRVEILEGRTECVLSNLRGRTRYTFAVRARMAEPSFGGFWSAWSEPVSLLTPSDLDP
